Measured values: patent US7060449

Biological target: T1, rat GALR2 (rat)
T1 chain: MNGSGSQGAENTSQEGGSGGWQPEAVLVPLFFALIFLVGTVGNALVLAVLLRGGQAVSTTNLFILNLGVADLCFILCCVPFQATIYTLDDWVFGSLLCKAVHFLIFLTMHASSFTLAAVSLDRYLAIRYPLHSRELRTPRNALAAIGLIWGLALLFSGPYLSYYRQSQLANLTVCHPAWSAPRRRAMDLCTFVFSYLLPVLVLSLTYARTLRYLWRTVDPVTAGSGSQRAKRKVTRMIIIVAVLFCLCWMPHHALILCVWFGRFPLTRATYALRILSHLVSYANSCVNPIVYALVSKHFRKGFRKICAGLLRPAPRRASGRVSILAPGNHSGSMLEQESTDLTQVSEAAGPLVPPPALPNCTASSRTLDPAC
Assay: radioligand
Conditions: modification not given

Binder	Kd
GWTLNSAGYLLGPHAIDNHRSFHDKYGLA [[125I]porcine galanin, P07480]	0.2 nM

Biological target: T1, rat GALR2 (rat)
Assay: competition
Conditions: modification not given

Binder	Ki
GATLNSAGYLLGPHAI [porcine Ala2-galanin 1-16, P07480]	> 1000 nM
GWTLASAGYLLGPHAI [[Ala5]galanin(1-16), P07480]	> 620 nM
GWTLNSAGYLLGPHAIDNHRSFHDKYGLA [[D-Trp2]porcine galanin(1-29), P07480]	6.46 nM
DNHRSFHDKYGLA [porcine galanin 17-29, P07480]	> 1000 nM
GWTLNSAGY [porcine galanin 1-9, P07480]	> 1000 nM
GWTLNSAGALLGPHAI [[Ala9]galanin(1-16), P07480]	> 1000 nM
GFTLNSAGYLLGPHAIDNHRSFHDKYGLA [[Phe2]porcine galanin(1-29), P07480]	> 1000 nM
GWTLNSAGYLLGPHAIDNHRSFHDKYGLA [porcine galanin(1-29), P07480]	0.447 nM
GFTLNSAGYLLGPHAI [Phe2-galanin 1-16, P07480]	> 1000 nM
